According to paper PMC10397247:

Assays:
O8-bH = biological target: T1, O8-bH; assay: two-hybrid library CCNG1;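 note: natural log of median RNA to DNA barcode read ratio; higher means stronger binding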
T1 chain: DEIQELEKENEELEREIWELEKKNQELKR

O5-bH = biological target: T2, O5-bH; assay: two-hybrid library CCNG1;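 note: natural log of median RNA to DNA barcode read ratio; higher means stronger binding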
T2 chain: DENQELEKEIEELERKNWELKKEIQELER

O9-bH = biological target: T3, O9-bH; assay: two-hybrid library CCNG1;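 note: natural log of median RNA to DNA barcode read ratio; higher means stronger binding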
T3 chain: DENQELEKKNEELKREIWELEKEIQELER

O16-bH = biological target: T4, O16-bH; assay: two-hybrid library CCNG1;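 note: natural log of median RNA to DNA barcode read ratio; higher means stronger binding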
T4 chain: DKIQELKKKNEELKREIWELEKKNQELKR

O6-bH = biological target: T5, O6-bH; assay: two-hybrid library CCNG1;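 note: natural log of median RNA to DNA barcode read ratio; higher means stronger binding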
T5 chain: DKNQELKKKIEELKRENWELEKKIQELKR

O7-bH = biological target: T6, O7-bH; assay: two-hybrid library CCNG1;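 note: natural log of median RNA to DNA barcode read ratio; higher means stronger binding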
T6 chain: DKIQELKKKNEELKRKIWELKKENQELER

O2-bH = biological target: T7, O2-bH; assay: two-hybrid library CCNG1
T7 chain: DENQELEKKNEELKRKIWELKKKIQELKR

O4-bH = biological target: T8, O4-bH; assay: two-hybrid library CCNG1
T8 chain: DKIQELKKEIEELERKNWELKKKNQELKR

O3-bH = biological target: T9, O3-bH; assay: two-hybrid library CCNG1
T9 chain: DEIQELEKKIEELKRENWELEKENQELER

P8mSN = biological target: T10, P8mSN; assay: two-hybrid library CCNG1
T10 chain: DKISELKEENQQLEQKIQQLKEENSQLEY

P7mSN = biological target: T11, P7mSN; assay: two-hybrid library CCNG1
T11 chain: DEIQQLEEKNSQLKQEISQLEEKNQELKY

P5mSN = biological target: T12, P5mSN; assay: two-hybrid library CCNG1
T12 chain: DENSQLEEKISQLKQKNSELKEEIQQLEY

P6mSN = biological target: T13, P6mSN; assay: two-hybrid library CCNG1
T13 chain: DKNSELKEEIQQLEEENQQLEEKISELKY

O9 = biological target: T14, O9; assay: two-hybrid library CC0; settings: mean of both orientations
T14 chain: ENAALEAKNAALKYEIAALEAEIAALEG

O4 = biological target: T15, O4; assay: two-hybrid library CC0; settings: mean of both orientations
T15 chain: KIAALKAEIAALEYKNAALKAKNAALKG

O7 = biological target: T16, O7; assay: two-hybrid library CC0; settings: mean of both orientations
T16 chain: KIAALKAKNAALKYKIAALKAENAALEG

O16 = biological target: T17, O16; assay: two-hybrid library CC0; settings: mean of both orientations
T17 chain: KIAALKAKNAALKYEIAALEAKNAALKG

O5 = biological target: T18, O5; assay: two-hybrid library CC0; settings: mean of both orientations
T18 chain: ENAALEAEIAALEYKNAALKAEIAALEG

O3 = biological target: T19, O3; assay: two-hybrid library CC0; settings: mean of both orientations
T19 chain: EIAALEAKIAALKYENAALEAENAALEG

O2 = biological target: T20, O2; assay: two-hybrid library CC0; settings: mean of both orientations
T20 chain: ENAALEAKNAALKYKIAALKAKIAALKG

O6 = biological target: T21, O6; assay: two-hybrid library CC0; settings: mean of both orientations
T21 chain: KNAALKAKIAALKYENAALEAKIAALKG

O8 = biological target: T22, O8; assay: two-hybrid library CC0; settings: mean of both orientations
T22 chain: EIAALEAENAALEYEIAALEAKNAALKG

4H3926-bN = biological target: T23, 4H3926-bN; assay: two-hybrid library CCNG1
T23 chain: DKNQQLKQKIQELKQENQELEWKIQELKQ

4H855-bN = biological target: T24, 4H855-bN; assay: two-hybrid library CCNG1
T24 chain: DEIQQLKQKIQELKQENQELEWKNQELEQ

4H2627-bN = biological target: T25, 4H2627-bN; assay: two-hybrid library CCNG1
T25 chain: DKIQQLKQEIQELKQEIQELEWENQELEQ

4H3010-bN = biological target: T26, 4H3010-bN; assay: two-hybrid library CCNG1
T26 chain: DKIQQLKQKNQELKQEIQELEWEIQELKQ

4H349-bA = biological target: T27, 4H349-bA; assay: two-hybrid library CCNG1
T27 chain: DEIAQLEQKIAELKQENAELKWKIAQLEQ

4H754-bN = biological target: T28, 4H754-bN; assay: two-hybrid library CCNG1
T28 chain: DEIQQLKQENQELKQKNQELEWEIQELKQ

4H2673-bN = biological target: T29, 4H2673-bN; assay: two-hybrid library CCNG1
T29 chain: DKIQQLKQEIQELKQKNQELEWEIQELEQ

4H4073-bN = biological target: T30, 4H4073-bN; assay: two-hybrid library CCNG1
T30 chain: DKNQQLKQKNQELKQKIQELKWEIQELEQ

4H953-bN = biological target: T31, 4H953-bN; assay: two-hybrid library CCNG1
T31 chain: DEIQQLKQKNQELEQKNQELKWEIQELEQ

4H346-bN = biological target: T32, 4H346-bN; assay: two-hybrid library CCNG1
T32 chain: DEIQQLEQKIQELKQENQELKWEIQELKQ

4H3112-bN = biological target: T33, 4H3112-bN; assay: two-hybrid library CCNG1
T33 chain: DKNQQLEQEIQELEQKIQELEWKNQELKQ

4H2586-bN = biological target: T34, 4H2586-bN; assay: two-hybrid library CCNG1
T34 chain: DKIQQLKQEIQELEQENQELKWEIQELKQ

4H918-bN = biological target: T35, 4H918-bN; assay: two-hybrid library CCNG1
T35 chain: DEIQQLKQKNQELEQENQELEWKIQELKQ

4H683-bN = biological target: T36, 4H683-bN; assay: two-hybrid library CCNG1
T36 chain: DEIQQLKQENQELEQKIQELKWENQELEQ

4H797-bN = biological target: T37, 4H797-bN; assay: two-hybrid library CCNG1
T37 chain: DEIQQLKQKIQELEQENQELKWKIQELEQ

4H968-bN = biological target: T38, 4H968-bN; assay: two-hybrid library CCNG1
T38 chain: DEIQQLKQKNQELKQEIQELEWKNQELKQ

4H575-bN = biological target: T39, 4H575-bN; assay: two-hybrid library CCNG1
T39 chain: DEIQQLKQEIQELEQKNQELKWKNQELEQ

4H2702-bN = biological target: T40, 4H2702-bN; assay: two-hybrid library CCNG1
T40 chain: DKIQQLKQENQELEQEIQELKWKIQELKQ

4H457-bN = biological target: T41, 4H457-bN; assay: two-hybrid library CCNG1
T41 chain: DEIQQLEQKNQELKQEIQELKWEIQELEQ

4H780-bN = biological target: T42, 4H780-bN; assay: two-hybrid library CCNG1
T42 chain: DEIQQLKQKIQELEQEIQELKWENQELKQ

4H3427-bN = biological target: T43, 4H3427-bN; assay: two-hybrid library CCNG1
T43 chain: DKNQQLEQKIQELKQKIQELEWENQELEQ

4H3189-bA = biological target: T44, 4H3189-bA; assay: two-hybrid library CCNG1
T44 chain: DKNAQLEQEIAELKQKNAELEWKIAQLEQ

4H883-bH = biological target: T45, 4H883-bH; assay: two-hybrid library CCNG1
T45 chain: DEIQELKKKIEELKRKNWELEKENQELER

O15-bH = biological target: T46, O15-bH; assay: two-hybrid library CCNG1
T46 chain: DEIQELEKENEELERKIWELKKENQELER

4H3907-bN = biological target: T47, 4H3907-bN; assay: two-hybrid library CCNG1
T47 chain: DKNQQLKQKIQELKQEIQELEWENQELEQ

4H470-bN = biological target: T48, 4H470-bN; assay: two-hybrid library CCNG1
T48 chain: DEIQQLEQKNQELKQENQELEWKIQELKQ

4H3961-bN = biological target: T49, 4H3961-bN; assay: two-hybrid library CCNG1
T49 chain: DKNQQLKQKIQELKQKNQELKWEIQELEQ

4H363-bN = biological target: T50, 4H363-bN; assay: two-hybrid library CCNG1
T50 chain: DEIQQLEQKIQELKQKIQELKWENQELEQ

4H3628-bH = biological target: T51, 4H3628-bH; assay: two-hybrid library CCNG1
T51 chain: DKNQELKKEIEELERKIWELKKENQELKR

## DKIQELKKKNEELKREIWELEKKNQELKR [O16-bH]
O8-bH
  interaction score: 0.7
O5-bH
  interaction score: -0.611
O9-bH
  interaction score: -0.421
O16-bH
  interaction score: 0.441
O6-bH
  interaction score: 1.06
O7-bH
  interaction score: 1.17
O2-bH
  interaction score: -1.39
O4-bH
  interaction score: 0.0481
O3-bH
  interaction score: 1.41

## DENSQLEEKISQLKQKNSELKEEIQQLEY [P5mSN]
P8mSN
  interaction score: -0.632
P7mSN
  interaction score: -0.763
P5mSN
  interaction score: -1.4
P6mSN
  interaction score: 0.0393

## KIAALKAKNAALKYEIAALEAKNAALKG [O16]
O9
  interaction score: -2.65
O4
  interaction score: -2.71
O7
  interaction score: -2.48
O16
  interaction score: -2.76
O5
  interaction score: -2.68
O3
  interaction score: -2.69
O2
  interaction score: -2.67
O6
  interaction score: -1.77
O8
  interaction score: 0.382

## DENQQLKQKIQELEQKIQELEWKNQELEQ [4H1831-bN]
4H3926-bN
  interaction score: -0.39
4H855-bN
  interaction score: -0.282
4H2627-bN
  interaction score: 1.7
4H3010-bN
  interaction score: -0.741
4H349-bA
  interaction score: -1.73
4H754-bN
  interaction score: -0.46
4H2673-bN
  interaction score: -0.269
4H4073-bN
  interaction score: 0.223
4H953-bN
  interaction score: -0.677
4H346-bN
  interaction score: 0.142
4H3112-bN
  interaction score: -0.567
4H2586-bN
  interaction score: -0.466
4H918-bN
  interaction score: -0.624
4H683-bN
  interaction score: -2.14
4H797-bN
  interaction score: -0.203
4H968-bN
  interaction score: -0.157
4H575-bN
  interaction score: -0.248
4H2702-bN
  interaction score: -0.111
4H457-bN
  interaction score: -1.9
4H780-bN
  interaction score: -1.02
4H3427-bN
  interaction score: -0.445

## DKIQQLKQEIQELKQEIQELEWENQELEQ [4H2627-bN]
4H3926-bN
  interaction score: -0.972
4H855-bN
  interaction score: -0.307
4H2627-bN
  interaction score: -1.18
4H3010-bN
  interaction score: -0.478
4H754-bN
  interaction score: -1.21
4H2673-bN
  interaction score: -0.336
4H4073-bN
  interaction score: 0.24
4H953-bN
  interaction score: -1.1
4H346-bN
  interaction score: -1.49
4H3112-bN
  interaction score: -0.418
4H918-bN
  interaction score: -0.935
4H683-bN
  interaction score: -0.185
4H797-bN
  interaction score: -2.2
4H968-bN
  interaction score: -0.499
4H575-bN
  interaction score: 0.336
4H2702-bN
  interaction score: -0.837
4H3189-bA
  interaction score: -2.27
4H457-bN
  interaction score: -1.44
4H780-bN
  interaction score: -0.619
4H883-bH
  interaction score: 0.737
4H3427-bN
  interaction score: -0.336

## DENQELEKEIEELERENWELEKKIQELKR [O14-bH]
O8-bH
  interaction score: -1.78
O5-bH
  interaction score: -1.91
O9-bH
  interaction score: 0.497
O16-bH
  interaction score: 1.45
O6-bH
  interaction score: 1.63
O15-bH
  interaction score: 1.43
O7-bH
  interaction score: 1.56
O2-bH
  interaction score: -1.83
O4-bH
  interaction score: 0.39
O3-bH
  interaction score: -0.0193

## DEIQQLEQKIQELKQKIQELKWENQELEQ [4H363-bN]
4H3907-bN
  interaction score: 0.321
4H470-bN
  interaction score: -0.702
4H3961-bN
  interaction score: -0.162
4H363-bN
  interaction score: 0.903

## DKIQQLKQEIQELEQENQELKWEIQELKQ [4H2586-bN]
4H3926-bN
  interaction score: 0.209
4H855-bN
  interaction score: -0.916
4H2627-bN
  interaction score: -0.115
4H3010-bN
  interaction score: 0.0264
4H754-bN
  interaction score: -1.88
4H2673-bN
  interaction score: -1.47
4H3628-bH
  interaction score: 1.41
4H4073-bN
  interaction score: -0.362
4H953-bN
  interaction score: -1.01
4H346-bN
  interaction score: 1.97
4H3112-bN
  interaction score: -1.32
4H2586-bN
  interaction score: 0.806
4H918-bN
  interaction score: -1.12
4H683-bN
  interaction score: 0.147
4H797-bN
  interaction score: -0.469
4H968-bN
  interaction score: -1.31
4H575-bN
  interaction score: -1.1
4H2702-bN
  interaction score: -0.448
4H457-bN
  interaction score: -0.912
4H780-bN
  interaction score: -1.16
4H3427-bN
  interaction score: 0.526

## DKNQELKKKIEELKRKNWELKKEIQELER [O13-bH]
O8-bH
  interaction score: 0.569
O5-bH
  interaction score: 0.194
O9-bH
  interaction score: -0.0315
O16-bH
  interaction score: -1.44
O6-bH
  interaction score: -0.527
O15-bH
  interaction score: 1.51
O7-bH
  interaction score: -0.211
O2-bH
  interaction score: -2.29
O4-bH
  interaction score: -0.471
O3-bH
  interaction score: 0.496

## DEIQELEKENEELERKIWELKKENQELER [O15-bH]
O8-bH
  interaction score: 0.416
O5-bH
  interaction score: -1.6
O9-bH
  interaction score: -0.267
O16-bH
  interaction score: 1.62
O6-bH
  interaction score: -0.0351
O15-bH
  interaction score: 0.268
O7-bH
  interaction score: 1.73
O2-bH
  interaction score: -0.549
O4-bH
  interaction score: -1.19
O3-bH
  interaction score: -0.38
